Results taken from the nanobody polyreactivity screen of Harvey et al. (2022).

Assay: yeast display, Sf9 membrane polyspecificity reagent, FACS + sequencing; frameworks hold sequencing errors
Summary of the method: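 Sorting gates, low and high (top ~1%), were placed on anti-HA fluorescence to track expression and on streptavidin fluorescence to track reagent binding. A clone's polyreactivity label is taken from the gate it came out of. The reagent was 10% biotinylated, detergent-solubilized Sf9 membrane, applied for 1 hour at 4 °C to galactose-induced yeast display cells.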

Row | Sequence | polyreactivity (PSR sort gate)
1 | QVQLVESGGGLVQAGGSLRLSCAASGSTFGVNAMGWYRPAPGKERELVAAISRSGTSTYYADSVKGRFTISRDNAKNTVYLLMNSLKPEDTAVYYCAAQYFSGYHKYGYWGQGTQVTVSS | high polyreactivity
2 | QVQLVESGGGLVQAGGSLRLSCAASGSTFGVNAMGWYRQAPGKEREFVAAITSSSGSTYYADSVKGRFTISRDNAKNTVYLQMNSLKPEDTAVYYCNKRYIQLYDYWGQGTQVTVSS | low polyreactivity
3 | QVQLVESGGGLVQAGGSLRLSCAASGSTFGVYAMGWYRQAPGKERELVAAINYSGRTYYADSVKGRFTISRDNAKNTVYLQMNSLKPEDTAVYYCAADWYWSRHEYEYWGQGTQVTVSS | high polyreactivity
4 | QVQLVESGGGLVQAGGSLRLSCAASGSTFGWYAMGWYREAPGKERELVAAISWLGTSTYYADSVKGRFTISRDNAKNTVYLQLNSLKPEDTAVYFCAADAYDVYYAYYYWGQGTQVTVSS | high polyreactivity
5 | QVQLVESGGGLVQAGGSLRLSCAASGSTFGWYAMGWYRQAPGKESELVAAIRTSGGDSTYYADSVKGRFTISRDNAKNTVYLQMNSLKPEDTAVYYCAKTVWWYYRYPFDYWGQGTQGTVSS | low polyreactivity
6 | QVQLVESGGGLVQAGGSLRLSCAASGSTFGYNAMGWYRPAPGKERELVARITSSGGSTYYADSVKGRFTISRDNAKISVYLQMNSLKPEDTAVYYCAAGYPYRAVYRYYYWGQGTQVTVSS | high polyreactivity
7 | QVQLVESGGGLVQAGGSLRLSCAASGSTFGYNAMGWYRQAAGKERELVAGISSGGSTNYADSVKGRFTISRDNAKNTVYLQMNSLKPEDTAVYYCAAYKYDHRVDTGYDYWGQGTQVTVSS | low polyreactivity
8 | QVQLVESGGGLVQAGGSLRLSCAASGSTFGYNAMGWYRQAPGKEREFVATIRYSGDRTYYADSVKGRFTISRDNAKNTVYLQMNSLKPEDTAVYYCAADLYYNSYGRYGRYYYWGQGTQVNVSS | high polyreactivity
9 | QVQLVESGGGLVQAGGSLRLSCAASGSTFGYNAMGWYRQAPGKERELVAAISFSSGRTYYADSVKGRFTISRDNAKNTVYLQMNSLKPEDTAVYYCAALQYRRRPYGAVERYDYWGQGTQVTVSS | high polyreactivity
10 | QVQLVESGGGLVQAGGSLRLSCAASGSTFGYNAMGWYRQAPGKERELVAAISSSGGSTYYADSVKGRFTISRDNAKNTVYLQMNSLKPEDTAVYYCATEFFQYYSTKGYDYWGQGTQVTVSS | low polyreactivity
11 | QVQLVESGGGLVQAGGSLRLSCAASGSTFGYNAMGWYRQAPGKERELVAAITRSGGSTDYADSVKGRFTISRDNAKNTVYLQMNSLKPEDTAVYYCAADGDHPWWSQYDYWGQGTQVTVSS | low polyreactivity
12 | QVQLVESGGGLVQAGGSLRLSCAASGSTFGYNARGWYRQAPGKEREFVARIRSSGSTTYADSVKGRFTISRDNAKNTVYLQMNSLKPEDTAVYYCAARRLYGYSPWVRFGSYDYWGQGTQVTVSS | high polyreactivity
13 | QVQLVESGGGLVQAGGSLRLSCAASGSTFGYNDMGRYRQAPGKERELVADSSYSGDSTYSADSVKGRFTISRDNAQNTVYLQMNSLKPEDTAVYYCKADRFADYDDWGQGTQVTVSS | low polyreactivity
14 | QVQLVESGGGLVQAGGSLRLSCAASGSTFGYNDMGWYRQAPGKERELVAAIDTGVSTNYADSVKGRFTISRDNAKNTVYLQMNSLKPEDTAVYYCAKSGSAYWHSGWSVGFDYWGQGTQVTVSS | low polyreactivity
15 | QVQLVESGGGLVQAGGSLRLSCAASGSTFGYYAMGCYRQAPGKERELVAAITSGGSTKYADSVKGRFTISRDNAKNTVYLQMNSLKPEDTAVYYCATSRYFGYGFWGQGTQVTVSS | low polyreactivity
16 | QVQLVESGGGLVQAGGSLRLSCAASGSTFGYYAMGWSRQAPGKERELVAVITYSGGSTYYADSVKGRFTISRDNAKNTVYLQMNSLKPEDTAVYYCAAVIGVWYYYTYDYWGQGTQVTVSS | low polyreactivity
17 | QVQLVESGGGLVQAGGSLRLSCAASGSTFGYYAMGWYRQAPGKERELVAAISYSGGSTYYADSVKGRFTISRDNAKNTVYLQMNSLKPAVTAVYYCAARFTRQMYYWGQGTQVTVSS | high polyreactivity
18 | QVQLVESGGGLVQAGGSLRLSCAASGSTFGYYAMGWYRQAPGKERELVAAITDSGGITHYADSVKGRFTISRDNAKNTVYLQMNSLKPEDTAVYYCYARYLGYGWFDYWGQGTQVTVSS | low polyreactivity
19 | QVQLVESGGGLVQAGGSLRLSCAASGSTFGYYAMGWYRQAPGKERELVAAITIRGDGTYYADSVKGRFTISRDNAKNTVYLQMNSLIPEDTAVYYCAAEDWLWFDYWGQGTQVTVSS | high polyreactivity
20 | QVQLVESGGGLVQAGGSLRLSCAASGSTFGYYARLWYRQAPGKERDLVAAISYSGGSTYYADSVKGRFTISRDNAKNTVYLQMNSLKPEDTAVYYCAARFTRQMYYWGQGTQVTVSS | high polyreactivity
21 | QVQLVESGGGLVQAGGSLRLSCAASGSTFGYYGMGWYRQAPGKERELLAAISTGGRTNYADSVKGRFTISRDNAKNTVYLQMNSLKPEDTAVYYCAADFLSPAYRPSWYRFDYWGQGTQVTVSS | low polyreactivity
22 | QVQLVESGGGLVQAGGSLRLSCAASGSTFGYYTMGRYRQAPGKERELVAAITWSGGTTYYAESVKGRFTISRDNAKNPVYLQMNSLKPEDTAVYYCATRPWYYASPRTRFGSWGQGTQVTVSS | high polyreactivity

Row | Sequence | polyreactivity (PSR sort gate)
23 | QVQLVESGGGLVQAGGSLRLSCAASGSTFGYYTMGWYRQAPGKERELVAAISWGGGSTYYADSVKGRFTISRDNAKNTVYFQMNSLIPEDTAVYYCARTPVTSYKDDFYYWGQGTQVTVSS | low polyreactivity
24 | QVQLVESGGGLVQAGGSLRLSCAASGSTFGYYTMGWYRQAPGKERELVAAITWSGGSTYYADSVKGRFTISRDNAKNSVYLQINSLKPEDSSVYYCAADDYWTPFGYWGQGTQVTVSS | low polyreactivity
25 | QVQLVESGGGLVQAGGSLRLSCAASGSTFHDYAMGLYRQAPGKERELVAAISNSGGSTYYADSVKGRFTISRDNAKNTVYLQMNSLKPEDTAVYYCAARKYVAGHKYIMNYWGQGTQVTVSS | low polyreactivity
26 | QVQLVESGGGLVQAGGSLRLSCAASGSTFHGNAMGWYRQAPGKERELVAAISRSGGSTYYADSVKGRFTISRDNAKNTVYLQMNSLKPEDTAVYYCAADRPYYPLKYDYWGQGTQVTVSS | high polyreactivity
27 | QVQLVESGGGLVQAGGSLRLSCAASGSTFHKYVMGWYRQAPGKEREFVAAISRRGTRTYYADSVKGRFTISRDNAKNTVYLQMNSLKPEDTAVYYCNVYYYRTYTHFLPGYEYWGQGTQVTVSS | high polyreactivity
28 | QVQLVESGGGLVQAGGSLRLSCAASGSTFHLYAMGWYRKAPGKEREFVAAIRGRGGNTYADSVKGRFTISRDNAKNTVYLQMNSLKPEDTAVYYCAAPLLRDLRSPYSYNYWGQGTQVTVSS | low polyreactivity
29 | QVQLVESGGGLVQAGGSLRLSCAASGSTFHLYAMGWYRQAPGKETEFVPAIRGRGGNTYADSVKGRFTISRDNAKNTVYLQMNSLKPEDTAVYYCAAPLLRDLRSPYSYNYWGQGTQVTVSS | low polyreactivity
30 | QVQLVESGGGLVQAGGSLRLSCAASGSTFHLYAMGWYRQAPGKETEIVAAIRGRGGNTYADSVKGRFTISRDNAKHTVYFQMNSLKPEDTAVSYCATSISEYQDFTRYDYWGQGTQVTVSS | low polyreactivity
31 | QVQLVESGGGLVQAGGSLRLSCAASGSTFHNYAMGWYRQAPGKERELVAGISVRGGGTYYADSVKGRFTISRDNAKNTVYLQMNSLKPEDTAVYYCAPDFYWFWTYGTLWYGYEYWGQGTQVTVSS | high polyreactivity
32 | QVQLVESGGGLVQAGGSLRLSCAASGSTFHPNAMGWCRQAPRKQRELFAAITWSTSVTYYADSVKGRFTISRDNAKNTVFLQMISLKPEDSAVYYCNAGYMLDSFRYDHWGQCTQVTVSS | low polyreactivity
33 | QVQLVESGGGLVQAGGSLRLSCAASGSTFHPYAMGWYRQPPGKASELVAAINWRVGSTYYADSVKGRFTISRDNAKNTVYLQMTSQIPEDTAVYYCAVSYMATLGRSRYDYWGQGTQVTVSS | low polyreactivity
34 | QVQLVESGGGLVQAGGSLRLSCAASGSTFHRNAMGWYRQAPGKERELVAAITSGGSTNYADSVKGRFKISRDNAKNTVYLQMNSLKPEDTAVYYCAADEVWGRDLGEYWGQGTQVTVSS | low polyreactivity
35 | QVQLVESGGGLVQAGGSLRLSCAASGSTFHRYAMGWYRQAPGKERELVAAITSSGDITYYADSVKGRFTISRDNAKNTVYLQMNSLKPEDTAVYYCNADGFYSWLYDYWGQGTQVTVSS | low polyreactivity
36 | QVQLVESGGGLVQAGGSLRLSCAASGSTFHRYTMGWYRQAPGKERELLAAISWSGGSTYYADSVKGRFTISRDNAKNTVYLQMNSLKPEDTAVYYSNKVTVYRFRGDSWGQGTQVTVSS | high polyreactivity
37 | QVQLVESGGGLVQAGGSLRLSCAASGSTFHRYTMGWYRQAPGKERELVAAISSGGRTYYADSVKGRFTISRDNAKNTVYLQMNSLKPEDTAVYYCNSRYPRQYWGGYDYWGQGTQVTVSS | high polyreactivity
38 | QVQLVESGGGLVQAGGSLRLSCAASGSTFHWYAMGWYRQAPGKERELVAAITSGGSTYYADSVKGRFTISRDNAKNTVYLQMNSLKPEDTAVYYCNADRVDSFFDGPSRGYDYWGQGTQVTVSS | low polyreactivity
39 | QVQLVESGGGLVQAGGSLRLSCAASGSTFHYAMGWYRPAPGKERELVAAITYGGGRTFYADSVKGRFTISRDNAKNTVYLQMNSLKPEDTAVYYCAKVVYYYGRGWTDYRSTMDSWGQGTQVTVSS | low polyreactivity
40 | QVQLVESGGGLVQAGGSLRLSCAASGSTFHYYAMGWYRQAPGKERELVAAISKRGGSTYYADSVKGRFTISRDNAKNNVYLQMNSLKPEDTSVYYCAKTWVSYSRYHYEYWGQGTQVTVSS | high polyreactivity
41 | QVQLVESGGGLVQAGGSLRLSCAASGSTFHYYAMGWYRQAPGKERELVAAISKSGGITYYADSVKGRFTISRDNAKNTVSLQMNSLKPEDTAVYYCNAYSASGYDYWGQGTQVTVSS | high polyreactivity
42 | QVQLVESGGGLVQAGGSLRLSCAASGSTFIAYALGWYRQAPGKERELDAAITTGDSTNYADSVKGRFTISRDNAKNTVYLQMNSLKPEDTAVYYCNADGTDFHFLSEIGSSQEGDYWGQGTQVTVSS | low polyreactivity
43 | QVQLVESGGGLVQAGGSLRLSCAASGSTFIDNTMGWYRQAPGKERELVASIRRSGGSTYYADSVKGRFTISRDNAKNTVYLQMNSLKPEDTAVYYCDVATRYHTTFWYYYWGQGTQVTVSS | high polyreactivity
